Earlier results in article PMC9377792.

Target: uPAR (Homo sapiens) (UniProt Q03405)
Chain of UniProt Q03405 (Q03405 23-305): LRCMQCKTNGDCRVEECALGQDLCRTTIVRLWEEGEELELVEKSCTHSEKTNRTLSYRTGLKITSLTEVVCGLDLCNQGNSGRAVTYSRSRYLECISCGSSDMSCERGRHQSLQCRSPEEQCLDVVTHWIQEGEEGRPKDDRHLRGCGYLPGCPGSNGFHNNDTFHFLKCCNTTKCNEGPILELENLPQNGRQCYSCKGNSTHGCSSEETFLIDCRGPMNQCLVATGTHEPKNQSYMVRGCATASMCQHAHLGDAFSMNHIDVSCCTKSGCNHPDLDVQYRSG

Q: With Factor XII (from UniProt P00748) as the substance, how does the Kd read?
A: 37.1 nM
